Where two headings read alike, the source gives them in different places.
Assays:
Assay in all cases: ELISA, OD405 at 10 ug/ml
A.9004SS V1/V2 tags [1] = target: T1, A.9004SS V1/V2 tags
T1 V1V2 tags construct: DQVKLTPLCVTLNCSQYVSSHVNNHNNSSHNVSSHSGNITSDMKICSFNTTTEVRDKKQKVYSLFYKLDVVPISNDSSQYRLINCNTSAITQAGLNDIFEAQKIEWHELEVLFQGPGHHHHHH

AE.con gp140CF [2] = target: AE.con gp140CF
B.040 gp140C [3] = target: B.040 gp140C
B.62357 gp140C [4] = target: T2, B.62357 gp140C
T2 construct: also called B.62357 140C

B.con gp140CF [5] = target: B.con gp140CF
C.1086 gp140 [6] = target: T3, C.1086 gp140
T3 construct: also called C.1086gp140C

Con 6 gp120 [7] = target: Con 6 gp120
G.con gp140CF [8] = target: G.con gp140CF
C.CAP206 gp140CF.12 [9] = target: C.CAP206 gp140CF.12 (HIV-1)
gp70 B.CaseA2 V1/V2 [10] = target: T4, gp70 B.CaseA2 V1/V2 (HIV-1 V1V2 on murine leukemia virus gp70)
T4 construct: also called B.gp70CaseA2 V1/V2; gp70 B.CaseAV1V2
T4 chain: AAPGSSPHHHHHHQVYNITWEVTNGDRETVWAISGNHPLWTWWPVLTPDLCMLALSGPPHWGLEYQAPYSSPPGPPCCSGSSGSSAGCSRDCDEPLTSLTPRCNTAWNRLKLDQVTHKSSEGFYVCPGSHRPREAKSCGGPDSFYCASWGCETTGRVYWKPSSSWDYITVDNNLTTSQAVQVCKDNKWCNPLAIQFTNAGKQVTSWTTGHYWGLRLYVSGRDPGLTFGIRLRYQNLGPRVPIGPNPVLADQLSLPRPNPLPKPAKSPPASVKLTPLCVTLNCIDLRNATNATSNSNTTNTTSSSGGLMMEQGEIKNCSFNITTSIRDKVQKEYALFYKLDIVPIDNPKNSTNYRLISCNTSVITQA

gp70 C.1086 V1/V2 [11] = target: T5, gp70 C.1086 V1/V2 (HIV-1 V1V2 on murine leukemia virus gp70)
T5 construct: also called C.gp70 1086C V1V2; C.1086gp70V1V2
T5 chain: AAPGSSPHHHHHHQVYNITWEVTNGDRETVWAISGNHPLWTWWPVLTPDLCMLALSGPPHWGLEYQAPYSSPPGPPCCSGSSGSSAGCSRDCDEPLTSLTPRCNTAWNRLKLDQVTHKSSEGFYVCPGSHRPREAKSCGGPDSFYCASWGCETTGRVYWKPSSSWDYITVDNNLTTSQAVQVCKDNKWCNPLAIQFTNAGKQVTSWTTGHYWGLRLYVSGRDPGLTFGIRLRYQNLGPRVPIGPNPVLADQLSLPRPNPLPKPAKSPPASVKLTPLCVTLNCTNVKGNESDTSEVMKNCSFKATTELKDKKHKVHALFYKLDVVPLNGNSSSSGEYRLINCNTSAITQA

AE.97CNG2XF gp140CF [12] = target: T6, AE.97CNG2XF gp140CF (HIV-1)
T6 construct: also called E.97CNGX2F gp140CF

B.HXB/BAL gp140CFI [13] = target: T7, B.HXB/BAL gp140CFI (HIV-1, UniProt P04578 33-680)
T7 construct: also called B.HxB/Ba gp140 CFI

B.9021 gp140C = B.9021 gp140C (HIV-1)
SIV CPZ US-1 gp140CF [14] = target: T8, SIV CPZ US-1 gp140CF (SIVcpz)
T8 construct: also called US-1 SIVCPZ gp140CF
T8 chain: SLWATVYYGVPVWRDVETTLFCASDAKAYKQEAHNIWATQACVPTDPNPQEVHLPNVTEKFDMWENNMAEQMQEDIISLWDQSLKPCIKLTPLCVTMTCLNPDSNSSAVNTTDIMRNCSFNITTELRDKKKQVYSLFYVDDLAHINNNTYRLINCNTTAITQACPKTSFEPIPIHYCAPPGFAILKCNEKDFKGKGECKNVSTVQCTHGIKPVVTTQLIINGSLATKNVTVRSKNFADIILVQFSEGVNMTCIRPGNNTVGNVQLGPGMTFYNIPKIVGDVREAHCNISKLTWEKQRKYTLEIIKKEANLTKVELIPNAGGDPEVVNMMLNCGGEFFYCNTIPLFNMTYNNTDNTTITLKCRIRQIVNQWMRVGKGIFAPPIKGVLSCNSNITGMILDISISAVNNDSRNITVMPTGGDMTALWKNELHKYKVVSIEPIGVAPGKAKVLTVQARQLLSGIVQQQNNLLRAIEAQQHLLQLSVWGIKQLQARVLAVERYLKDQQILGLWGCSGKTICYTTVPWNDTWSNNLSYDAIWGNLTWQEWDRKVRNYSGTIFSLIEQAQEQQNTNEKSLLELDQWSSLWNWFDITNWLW

A.9004SS V1/V2 tags [15] = target: T1, A.9004SS V1/V2 tags
AE.con gp140CF [16] = target: AE.con gp140CF; remark: listed apart in the source
B.040 gp140C [17] = target: B.040 gp140C; remark: listed apart in the source
B.62357 gp140C [18] = target: T2, B.62357 gp140C; remark: listed apart in the source
B.con gp140CF [19] = target: B.con gp140CF; remark: listed apart in the source
C.1086 gp140 [20] = target: T3, C.1086 gp140; remark: listed apart in the source
Con 6 gp120 [21] = target: Con 6 gp120; remark: listed apart in the source
G.con gp140CF [22] = target: G.con gp140CF; remark: listed apart in the source
C.CAP206 gp140CF.12 [23] = target: C.CAP206 gp140CF.12 (HIV-1); remark: listed apart in the source
gp70 B.CaseA2 V1/V2 [24] = target: T4, gp70 B.CaseA2 V1/V2
gp70 C.1086 V1/V2 [25] = target: T5, gp70 C.1086 V1/V2
AE.97CNG2XF gp140CF [26] = target: T6, AE.97CNG2XF gp140CF; remark: listed apart in the source
B.HXB/BAL gp140CFI [27] = target: T7, B.HXB/BAL gp140CFI; remark: listed apart in the source
SIV CPZ US-1 gp140CF [28] = target: T8, SIV CPZ US-1 gp140CF

Measured: binding result

B1: CH01_UA1 (antibody, V domains shown)
VH: EVQLVESGGGVVRPGGSLRLSCAASGFTFDDYGMSWVRQAPGKGLEWVSGINWNGGSTGYADSVKGRFTISRDNAKNSLYLQMNSLRAEDTALYYCARGTDYTIDDQGIRYQGSGTFWYFDLWGRGTLVTVSS
VL: not shown
no binding (tested: 10 ug/ml): A.9004SS V1/V2 tags [1] | AE.con gp140CF [2] | B.040 gp140C [3] | B.62357 gp140C [4] | B.con gp140CF [5] | C.1086 gp140 [6] | Con 6 gp120 [7] | G.con gp140CF [8] | C.CAP206 gp140CF.12 [9] | gp70 B.CaseA2 V1/V2 [10] | gp70 C.1086 V1/V2 [11] | AE.97CNG2XF gp140CF [12] | B.HXB/BAL gp140CFI [13] | B.9021 gp140C | SIV CPZ US-1 gp140CF [14]

B2: CH01_UA2 (antibody, V domains shown)
VH: EVQLVESGGGVVRPGGSLRLSCAASGFTFDDYGMSWVRQAPGKGLEWVSGINWNGGSTGYADSVKGRFTISRDNAKNSLYLQMNSLRAEDTALYYCARGTDYTIDDQGILYQGSGTFWYFDLWGRGTLVTVSS
VL: not shown
no binding (tested: 10 ug/ml): A.9004SS V1/V2 tags [15] | AE.con gp140CF [16] | B.040 gp140C [17] | B.62357 gp140C [18] | B.con gp140CF [19] | C.1086 gp140 [20] | Con 6 gp120 [21] | G.con gp140CF [22] | C.CAP206 gp140CF.12 [23] | gp70 B.CaseA2 V1/V2 [24] | gp70 C.1086 V1/V2 [25] | AE.97CNG2XF gp140CF [26] | B.HXB/BAL gp140CFI [27] | SIV CPZ US-1 gp140CF [28]

Reference: patent US9988424 (DUKE UNIVERSITY, dated 2018)
